Source: the supplement of paper PMC10126150
± gives the standard deviation of the averaged measurements.

Test system: ATP
Experiment: switch fluorescence ratio, 500 uM ATP over buffer (Cy3 cluster intensity, sum of 5 cycles each) (fold (ratio)); higher = stronger signal-on switching upon ATP binding; sequences stand for … in TCGTCGGCAGCGTCAGATGTGTATAAGAGACAGTTTTTTTTTTTTTTTTTTTTTTTTT…TC
Conditions: aptamer strand: ATP DNA aptamer (quencher-CACCTGGGGGAGTATTGCGGAGGAAGG + anchor), 100 nM annealed; ATP concentration: 500 uM
Outline: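 Clusters carrying Cy3-labelled switching strands on a modified Illumina MiSeq flow-cell were annealed to 100 nM quencher-labelled ATP aptamer and imaged in selection buffer. They were imaged again after 15 min with 500 uM ATP at 22 °C, over five buffer/ATP cycles with NaOH stripping and re-annealing in between. For each cluster, the fluorescence ratio is the summed Cy3 intensity of the target cycles divided by that of the buffer cycles, averaged per switch-domain sequence. Clusters outside 100-1000 RFU were left out.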
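Also: ATP exposure 15 min at 22 °C before imaging.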

Row | Sequence | switch fluorescence ratio
1 | TGTCGGGTTA | 1.01 ± 0.027
2 | TGAAGGCCTT | 0.9953 ± 0.0011
3 | GAGTTTGGGT | 0.985 ± 0.032
4 | GCTGTAAGGG | 0.988 ± 0.028
5 | TAAAACCTAA | 1.12 ± 0.25
6 | TTGGGGGAGA | 1.02 ± 0.038
7 | ATATTTGAGT | 0.9878 ± 0.0045
8 | CATATTTAGG | 0.949 ± 0.028
9 | GAAATTTGGA | 0.991 ± 0.034
10 | AAGTAATTTC | 1.02 ± 0.013
11 | TAAGAAAAGT | 0.9745 ± 0.0014
12 | ATTCAGAGTG | 0.965 ± 0.02
13 | TCCAGGTAGT | 1.594 ± 0.012
14 | TTATTATGCC | 1.02 ± 0.061
15 | AACCAAAGGT | 1.014 ± 0.0017
16 | CGGGTAATCT | 1.5 ± 0.61
17 | GGCGGAAGTC | 1.01 ± 0.013
18 | AACTTCTATT | 1.016 ± 0.00089
19 | AAGTGCAAAC | 1.53 ± 0.73
20 | CATACTCTTC | 1 ± 0.065
21 | ACACGATTGG | 0.991 ± 0.014
22 | TGTTAGGCAA | 1.06 ± 0.034
23 | TTTTCTGTTA | 1.032 ± 0.0085
24 | GAAGATATTA | 1 ± 0.011
25 | GTTTTAGTAG | 1.02 ± 0.015

Row | Sequence | switch fluorescence ratio
26 | GGTTCTATAG | 0.993 ± 0.02
27 | GTGTAAAGGC | 0.96 ± 0.021
28 | ACTTTGTATG | 1 ± 0.017
29 | ATATACAGGG | 1.06 ± 0.024
30 | TGAGTATAGG | 1.009 ± 0.003
31 | GAAGTTGTCA | 1.02 ± 0.047
32 | TTTGCTATCA | 0.984 ± 0.013
33 | CTTTTAGTGT | 0.963 ± 0.032
34 | GGGATTGAGC | 1.03 ± 0.041
35 | AAAATTGTTG | 0.988 ± 0.049
36 | GAGGGTACGG | 1.037 ± 0.0092
37 | TGAATCCTCG | 1.05 ± 0.012
38 | TCTGGGTATG | 0.988 ± 0.016
39 | TTTGATTTTG | 0.989 ± 0.016
40 | CTGTTACTGT | 0.986 ± 0.024
41 | GACATTTCGT | 0.992 ± 0.019
42 | CTAGGGCGGA | 1.01 ± 0.021
43 | GGGAAAGAGC | 1.151 ± 0.0064
44 | GCCCGGGAGC | 1 ± 0.037
45 | TGGGGGTTTT | 1 ± 0.032
46 | TTACGGGGGA | 1.03 ± 0.072
47 | AGTAACCGGG | 1.02 ± 0.035
48 | CTTGTATGAG | 0.989 ± 0.012
49 | GGGCGCGTAT | 1.03 ± 0.045
50 | TTGTTGAGGG | 1.014 ± 0.0042

Row | Sequence | switch fluorescence ratio
51 | AATGAGGGTA | 1.04 ± 0.019
52 | TTATTTTTCT | 1.01 ± 0.032
53 | ACGACGTTGA | 1.07 ± 0.032
54 | TCGGGGTGAC | 1.01 ± 0.018
55 | GGGAGGGCA | 1 ± 0.011
56 | ATTTTTACGG | 1.01 ± 0.013
57 | GGGGTTAGCT | 0.987 ± 0.018
58 | CCATGGTTTT | 1.0024 ± 0.00092
59 | AGTAGTGGGG | 0.994 ± 0.013
60 | ATTGACCCCT | 1.08 ± 0.015
61 | ACGGGGCCGT | 0.985 ± 0.031
62 | GAACTCATGA | 0.982 ± 0.012
63 | TTTACGATTG | 1.03 ± 0.029
64 | GGATTTGAGT | 0.976 ± 0.015
65 | GATTAAGAGG | 1.01 ± 0.039
66 | TTGGTAGCAA | 1.81 ± 0.41
67 | TGTTGTTTAA | 1.04 ± 0.086
68 | CAAAACGTAG | 1.01 ± 0.025
69 | AAGGTCGGTA | 1.001 ± 0.0024
70 | CTTGTTTGGC | 1.02 ± 0.045
71 | TGCGCCTCAG | 1.08 ± 0.074
72 | ATTTACCGGT | 1.03 ± 0.022
73 | ACATGGGGAG | 1.02 ± 0.016
74 | TAAAGAAGGG | 0.988 ± 0.033
75 | TCTATTTGTA | 0.9993 ± 0.0071

Row | Sequence | switch fluorescence ratio
76 | TCTGGGCAGC | 1.04 ± 0.05
77 | CAGGCTTTTT | 1 ± 0.029
78 | TCGGAGTGCT | 1.04 ± 0.042
79 | TTGTGTAGTC | 1.005 ± 0.0091
80 | TTATGAAGAT | 0.963 ± 0.029
81 | AGCGCCTCAG | 1.003 ± 0.0081
82 | TAAATGTTAA | 0.9889 ± 0.0051
83 | GTTTGTCACC | 1.03 ± 0.034
84 | TTGTCTGGGG | 0.985 ± 0.03
85 | TCCAGTTAGT | 0.977 ± 0.013
86 | TCGGCTATGG | 1.01 ± 0.011
87 | AAGGGCAGAA | 0.973 ± 0.03
88 | AAGGAAGGGT | 1.02 ± 0.041
89 | TTGGTATAA | 0.999 ± 0.021
90 | ACGGGCCGGG | 1.02 ± 0.12
91 | TTGACTGGG | 0.991 ± 0.023
92 | GAACTGATAA | 1.16 ± 0.2
93 | TAAAGGCTAT | 1 ± 0.026
94 | CGGGGTGGTT | 1.01 ± 0.038
95 | TTATGCGGAT | 1.02 ± 0.015
96 | TGGGAGTTCA | 0.971 ± 0.01
97 | TTTGTCGCTG | 1.01 ± 0.038
98 | AGGTGGGATT | 1.02 ± 0.033
99 | ACTCATATAT | 1.02 ± 0.0045
100 | TAGGTCATTG | 0.995 ± 0.025

Row | Sequence | switch fluorescence ratio
101 | TTACCTTTCT | 1.64 ± 0.64
102 | CTGTAGAAGA | 1.05 ± 0.032
103 | GCAATAGTGG | 1.25 ± 0.025
104 | ATTTGTCTGG | 0.9643 ± 0.0028
105 | CGTTTTGGTT | 0.976 ± 0.021
106 | AAAATGGCTT | 0.988 ± 0.034
107 | TCTGGTAGAG | 1.02 ± 0.023
108 | TTTAGGGTTT | 1.06 ± 0.19
109 | ATAGTTGTTT | 1 ± 0.019
110 | CCTGGCGCTT | 2.06 ± 0.86
111 | TTAGGTTATT | 0.9786 ± 0.0027
112 | AGGTTTAGTA | 1.02 ± 0.015
113 | AAATCTGGGT | 0.97 ± 0.013
114 | TGAGTTAAGG | 0.986 ± 0.012
115 | GACTGGAAGG | 1.01 ± 0.011
116 | AAAAACGGTG | 1.05 ± 0.084
117 | GGTATATTAG | 0.99 ± 0.028
118 | TATGATTTAT | 0.995 ± 0.062
119 | ATATGGTGTT | 1.01 ± 0.025
120 | CGGGCTTAAA | 1 ± 0.018
121 | GAGATTTAGT | 0.973 ± 0.049
122 | CACTACGACT | 1.084 ± 0.0034
123 | AGTTTTGTGC | 1.005 ± 0.0017
124 | ATGGGCCCAT | 1.01 ± 0.011
125 | GAGCCCGCAG | 1.6 ± 0.038

Row | Sequence | switch fluorescence ratio
126 | CATCGTTGGT | 0.999 ± 0.0029
127 | CGTGTAGGGG | 1.03 ± 0.017
128 | GCGTAGATGG | 1.006 ± 0.0087
129 | ATTAATGTTG | 1.054 ± 0.0067
130 | TGATGATCC | 1.01 ± 0.042
131 | TATGGGCCGG | 1.07 ± 0.018
132 | TGGGGAAATT | 1.01 ± 0.022
133 | CGGTTTGACA | 0.9954 ± 0.0092
134 | GGTCTGGGCT | 0.976 ± 0.017
135 | AAGTAGTTAC | 1.05 ± 0.042
136 | AATTTGCGGT | 0.988 ± 0.022
137 | GGTCATGAGG | 0.989 ± 0.023
138 | ACATCCAATT | 0.99 ± 0.019
139 | TTACTGAGGT | 0.992 ± 0.017
140 | CTTTTGAGGG | 0.974 ± 0.018
141 | GGTAAAGGGA | 1.01 ± 0.036
142 | TAGGTGTGTG | 0.984 ± 0.024
143 | TATGTGGCAC | 1.08 ± 0.061
144 | GAGACATCGT | 0.986 ± 0.018
145 | AGGCCTCAGA | 0.973 ± 0.015
146 | AAAAAGGGTG | 1 ± 0.045
147 | CGAGGACTTC | 1.02 ± 0.012
148 | GGGAGCCACG | 1.02 ± 0.036
149 | TTTCGGAGTG | 1.024 ± 0.0066
150 | AGGGATGTCC | 1.01 ± 0.044

Row | Sequence | switch fluorescence ratio
151 | GACTGTCGAG | 0.991 ± 0.027
152 | GCAGGAGATT | 1.01 ± 0.032
153 | AAAAGGGTAG | 1.01 ± 0.018
154 | GTATTAGGCG | 1.02 ± 0.02
155 | AGGTATAGGA | 1.01 ± 0.013
156 | GGTCTTCATT | 0.963 ± 0.011
157 | GAGGCCGATT | 1.02 ± 0.011
158 | CTGAGAGAAT | 1.27 ± 0.46
159 | GGTTTCGGTT | 1.5 ± 0.86
160 | AACTGGGGGC | 1 ± 0.031
161 | ATGGATAAGA | 1 ± 0.014
162 | TAAAAAAGAT | 0.978 ± 0.017
163 | TGGGTATAT | 1.01 ± 0.011
164 | AGTATTAGAA | 0.978 ± 0.012
165 | TCTATACTTT | 1 ± 0.021
166 | CGCATTGTGG | 1.02 ± 0.042
167 | CATAAGGTTT | 0.971 ± 0.04
168 | TGGGGGAATA | 0.999 ± 0.03
169 | TTGGGTAGGA | 1.03 ± 0.04
170 | TTTACGTAAA | 1.08 ± 0.11
171 | GTTTTTTTTT | 1.02 ± 0.07
172 | AATTTAATTT | 1.015 ± 0.006
173 | CAAAATGCTT | 0.99 ± 0.047
174 | TTTTTTTCAT | 1 ± 0.028
175 | AAGGTTGCGA | 0.9571 ± 0.0024

Row | Sequence | switch fluorescence ratio
176 | ACTAAGAGGG | 1.048 ± 0.0032
177 | AGGGGCGGTG | 0.994 ± 0.017
178 | GCCCGCTAAT | 2.25 ± 0.052
179 | GGCTATCTTT | 1 ± 0.029
180 | TTACAGGTTC | 1.031 ± 0.0019
181 | TCTTATAAAC | 1.02 ± 0.023
182 | CAGGAATATA | 1.014 ± 0.0049
183 | TGTTTGAAGG | 0.995 ± 0.017
184 | TTTTCTTGTT | 0.9949 ± 0.0062
185 | TTGTTTGTTC | 1.01 ± 0.034
186 | GGTTCAGCGC | 1.03 ± 0.041
187 | GGGGGGAGGT | 1.02 ± 0.065
188 | CTTAAATTCT | 1.01 ± 0.011
189 | GCTGTAGGTG | 1.039 ± 0.0033
190 | GTGCGCAGAA | 0.988 ± 0.015
191 | GGGTGGGTGC | 1.02 ± 0.048
192 | TATTATGTCA | 1.01 ± 0.043
193 | AGGTAAAGTA | 0.915 ± 0.025
194 | TATTGGTTAA | 0.974 ± 0.021
195 | GCTTCGTTGG | 1.17 ± 0.18
196 | ATGGGTCTCG | 0.966 ± 0.019
197 | TTTTAGGAAT | 0.997 ± 0.027
198 | TGCAGGGACT | 1.005 ± 0.0081
199 | GTAGAGGGGG | 0.989 ± 0.014
200 | AAGTAGGGGG | 0.951 ± 0.016
